The target of this test is T1, HA-CXCR4-Rluc8 (human), P61073.
T1 chain: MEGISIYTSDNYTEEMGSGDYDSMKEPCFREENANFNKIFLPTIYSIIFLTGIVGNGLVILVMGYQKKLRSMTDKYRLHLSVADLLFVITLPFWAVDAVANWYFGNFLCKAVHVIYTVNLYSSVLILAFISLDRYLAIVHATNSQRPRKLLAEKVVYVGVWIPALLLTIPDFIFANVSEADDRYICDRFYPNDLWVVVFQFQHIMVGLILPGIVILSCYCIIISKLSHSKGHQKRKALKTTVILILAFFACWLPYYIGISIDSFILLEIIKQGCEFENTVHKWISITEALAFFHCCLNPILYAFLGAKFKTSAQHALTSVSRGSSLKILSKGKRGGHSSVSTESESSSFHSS
Kind of test: FRET or BRET; BRET2 saturation in HEK293A cells: fixed amount of GPCR-Rluc8 plasmid, increasing amounts of GPCR-GFP2 plasmid (0 to 390 ng); coelenterazine 400a 5 μM; BRET50 from the net BRET ratio. To be noted: remark: other sources report otherwise. On the technique in general: BRET reads energy transfer from a luciferase to a nearby fluorophore.

B1: CXCR4-GFP2, P61073 1-352 (receptor)
chain: MEGISIYTSDNYTEEMGSGDYDSMKEPCFREENANFNKIFLPTIYSIIFLTGIVGNGLVILVMGYQKKLRSMTDKYRLHLSVADLLFVITLPFWAVDAVANWYFGNFLCKAVHVIYTVNLYSSVLILAFISLDRYLAIVHATNSQRPRKLLAEKVVYVGVWIPALLLTIPDFIFANVSEADDRYICDRFYPNDLWVVVFQFQHIMVGLILPGIVILSCYCIIISKLSHSKGHQKRKALKTTVILILAFFACWLPYYIGISIDSFILLEIIKQGCEFENTVHKWISITEALAFFHCCLNPILYAFLGAKFKTSAQHALTSVSRGSSLKILSKGKRGGHSSVSTESESSSFHSS
As for B1, the BRET50 is 0.244.

Values taken from article PMC10518940.
